Experimental data as given in PMC3022805 (Journal of Biomedical Science, 2011).
Values joined by “and” are separate entries in the source; they are usually repeats but may differ in a detail not shown here. Identical values can stand only once.

B1: apoE3-(72-166) (domain or fragment, human, UniProt P02649 90-184, looked up)
chain: KAYKSELEEQLTPVAEETRARLSKELQAAQARLGADMEDVCGRLVQYRGEVQAMLGQSTEELRVRLASHLRKLRKRLLRDADDLQKRLAVYQAGA
notes: 12 kDa; numbers count on: the mature protein of 299 amino acids; source: E. coli, purified
B2: apoE4-(72-166) (domain or fragment, human, UniProt P02649 90-184, looked up)
chain: KAYKSELEEQLTPVAEETRARLSKELQAAQARLGADMEDVRGRLVQYRGEVQAMLGQSTEELRVRLASHLRKLRKRLLRDADDLQKRLAVYQAGA
notes: as for B1
B3: apoE2-(72-166) (domain or fragment, human, UniProt P02649 90-184, looked up)
chain: KAYKSELEEQLTPVAEETRARLSKELQAAQARLGADMEDVCGRLVQYRGEVQAMLGQSTEELRVRLASHLRKLRKRLLRDADDLQKCLAVYQAGA
notes: 12 kDa; numbers count on: the mature protein of 299 amino acids; cDNA amplified with the printed primers and ligated NdeI-XhoI into pET-29a(+); source: E. coli, purified

Legend:
[1] = molecular target: the molecule itself; assay: AUC; sedimentation velocity and sedimentation equilibrium fitted together to a global discrete species model (SEDPHAT); PBS pH 7.3 with 5 mM DHPC (submicellar), 20°C
[2] = molecular target: the molecule itself; assay: AUC; sedimentation velocity (42,000 rpm, 0.5 mg/ml) and sedimentation equilibrium (10,000, 15,000, 20,000 rpm, 18 h each) fitted together to a global discrete species model (SEDPHAT); PBS pH 7.3, 20°C, no DHPC
[3] = molecular target: the molecule itself; assay: AUC; sedimentation velocity and sedimentation equilibrium fitted together to a global discrete species model (SEDPHAT); PBS pH 7.3 with 50 mM DHPC (micelles), 20°C

Protein | stoichiometry N [1] | stoichiometry N [2] | stoichiometry N [3]
B1 | 4 | 6 | 2
B2 |  | 4 | 2
B3 |  | 2 and 6 | 4
